Assay results taken from PMC5678773.

Biological target: T1, CIB1 (cryptochrome-interacting basic-helix-loop-helix) fused with the GAL4 DNA-binding domain (Arabidopsis) (UniProt Q8GY61)
T1 sequence: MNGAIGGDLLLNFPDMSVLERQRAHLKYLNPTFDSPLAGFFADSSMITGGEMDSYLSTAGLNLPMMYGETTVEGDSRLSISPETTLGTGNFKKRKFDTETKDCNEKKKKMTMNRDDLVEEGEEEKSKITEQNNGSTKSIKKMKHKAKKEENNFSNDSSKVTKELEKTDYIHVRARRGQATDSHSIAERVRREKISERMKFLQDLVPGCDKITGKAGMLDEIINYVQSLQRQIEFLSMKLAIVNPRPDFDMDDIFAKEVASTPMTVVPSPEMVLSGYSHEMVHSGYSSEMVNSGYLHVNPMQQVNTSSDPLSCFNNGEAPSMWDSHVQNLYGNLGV

For “CRY2 (cryptochrome 2) fused with the VP16 transcription activation domain (from UniProt Q96524 1-612) (natural protein)”, the amiR-D1 transcript (gene downstream of the UAS) by quantitative PCR in the transgenic alga, after blue light irradiation against before (red light culture) was over 14 fold.
